This is an account of results in publication PMC12669046.

This data set has as its target T1, MS2 coat protein (fluorescently labelled) (MS2 virus) (UniProt P03612).
T1 sequence: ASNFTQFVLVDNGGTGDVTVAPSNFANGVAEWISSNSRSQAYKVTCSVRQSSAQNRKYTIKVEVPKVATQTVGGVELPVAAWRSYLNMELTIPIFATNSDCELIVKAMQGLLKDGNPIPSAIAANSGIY
Put plainly: RNA-MaP. Conditions: RNA-MaP on MiSeq chip: MS2 protein 0.7-1,500 nM, incubation 0.8-1.5 h (lowest concentrations) to 10-20 min (highest), buffer and temperature per ref. 14, not ….

Under “200 nM input RNA S1 (on state), scale: fold”, “AGUCCACGCUGACGUGGACAAAAGCAUGUACAUGAGGAUCACCCAUGUCAUGUACAAGCUUUUUGCUCGUCUUAAAA” had a binding signal of 110.
“CCGAAAACGGGAACCUUAUUCUUUAUGCAUGUUCAGGAAACUGAGCAUGCAAACAUGAGGAUCACCCAUGUGUUGUGGGAUCAGC [6348262 C85 G11 Eli Fisker mod (ratio sensor, top R2)]” had a binding signal (fold (qARLB, off Kd / on Kd)) of 11.
For the sequence “GAUUACGAGAGUGUUAUUCUUUGGAGUGGGACAUGAGGAUCACCCAUGUAAAUGUACAUGUUAGCUGCUUAGCAGUUGACAUGAU [6248647 U62 jandersonlee mod (ratio sensor, top R3)]”, the binding signal (fold (qARLB, off Kd / on Kd)) is 34.
